Data as given in patent publication US20250034268A1 (Innovent, published 2025).

Columns and labels:
[1] = target: T1, human BCMA expressed on the cell surface (human, UniProt Q02223 1-184); experiment: flow cytometry on RPMI8226 cells
T1 construct: The same molecule is used here for hBCMA-CHO GS cells and for the endogenous BCMA of the myeloma lines; also called Human BCMA CHO-S cell; H929
T1 sequence: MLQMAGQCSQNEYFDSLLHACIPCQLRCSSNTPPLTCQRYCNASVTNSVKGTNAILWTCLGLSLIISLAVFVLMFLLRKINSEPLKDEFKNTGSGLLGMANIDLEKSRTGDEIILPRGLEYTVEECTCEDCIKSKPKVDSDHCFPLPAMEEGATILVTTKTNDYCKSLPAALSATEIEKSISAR

[2] = target: T1, human BCMA expressed on the cell surface; experiment: flow cytometry on U266 cells
[3] = target: T1, human BCMA expressed on the cell surface; experiment: flow cytometry on MM.1s cells
[4] = target: T1, human BCMA expressed on the cell surface; experiment: flow cytometry on H929 cells
[5] = target: T1, human BCMA expressed on the cell surface; experiment: flow cytometry on AMO1 cells
[6] = target: T1, human BCMA expressed on the cell surface; experiment: flow cytometry on L363 cells
[7] = target: T1, human BCMA expressed on the cell surface; experiment: flow cytometry, 10 nM antibody on human BCMA CHO-S cells against CHO-S cells
[8] = target: T2, Cynomolgus monkey BCMA-Fc (cynomolgus monkey, UniProt A0A2K5UD97 1-53); experiment: BLI (ForteBio Octet), IgG captured on AHC probe, antigen in solution, avid
T2 construct: also called BCMA from cynomolgus monkey (mobile phase); not shown: Fc part

Human BCMA-IHM = target: T3, Human BCMA-IHM (human, UniProt Q02223 1-54); experiment: BLI (ForteBio Octet), IgG captured on AHC probe, antigen in solution, monovalent
T3 construct: also called BCMA from human (mobile phase); not shown: 'IHM' is not explained; it may be a tag
T3 sequence (looked up): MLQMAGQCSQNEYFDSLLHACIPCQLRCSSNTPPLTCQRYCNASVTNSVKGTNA

Human BCMA monomer = target: T4, Human BCMA monomer (human, UniProt Q02223 1-54, limits assumed); experiment: as above
T4 construct: also called BCMA from human (mobile phase)
T4 sequence (looked up): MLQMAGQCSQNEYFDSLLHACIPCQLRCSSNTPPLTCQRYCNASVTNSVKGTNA

[9] = target: T1, human BCMA expressed on the cell surface; experiment: flow cytometry, 10 nM antibody on H929 cells
[10] = target: T1, human BCMA expressed on the cell surface; experiment: flow cytometry, 10 nM antibody on human BCMA CHO-S cells
Mouse BCMA-Fc = target: T5, Mouse BCMA-Fc (mouse, UniProt O88472 1-49, limits assumed); experiment: BLI (ForteBio Octet), IgG captured on AHC probe, antigen in solution, avid
T5 construct: also called BCMA from mouse (mobile phase); not shown: Fc part

[11] = target: T6, recombinant mouse BCMA protein (mouse, UniProt O88472 1-49, limits assumed); experiment: SPR (Biacore T200), antibody captured by anti-human Fc on CM5 chip, antigen 1.25-40 nM, 1:1 model
T6 construct: The construct is not described
T6 chain (looked up): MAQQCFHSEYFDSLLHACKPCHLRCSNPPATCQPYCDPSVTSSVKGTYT

[12] = target: T7, recombinant rat BCMA protein (rat); experiment: as above
T7 construct: The construct is not described

[13] = target: T8, recombinant human BCMA protein (human, UniProt Q02223 1-54, limits assumed); experiment: as above
T8 construct: The construct is not described
T8 sequence (looked up): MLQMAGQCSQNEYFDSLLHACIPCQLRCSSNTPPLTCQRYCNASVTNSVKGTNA

[14] = target: T9, recombinant cynomolgus monkey BCMA protein (cynomolgus monkey, UniProt A0A2K5UD97 1-53); experiment: as above
T9 construct: The construct is not described

[15] = target: T1, human BCMA expressed on the cell surface; experiment: flow cytometry on hBCMA-CHO-GS cells
[16] = target: T10, cynomolgus monkey BCMA expressed on CHO GS cells (cynomolgus monkey, UniProt A0A2K5UD97 1-183); experiment: flow cytometry on cynoBCMA-CHO-GS cells
T10 construct: whole, on cells; also called cynoBCMA-CHO GS; cynoBCMA-CHO-GS

[17] = target: T11, mouse BCMA expressed on CHO GS cells (mouse, UniProt O88472 1-185); experiment: flow cytometry on mBCMA-CHO-GS cells
T11 construct: whole, on cells; also called mBCMA-CHO GS; mBCMA-CHO-GS
T11 sequence (looked up): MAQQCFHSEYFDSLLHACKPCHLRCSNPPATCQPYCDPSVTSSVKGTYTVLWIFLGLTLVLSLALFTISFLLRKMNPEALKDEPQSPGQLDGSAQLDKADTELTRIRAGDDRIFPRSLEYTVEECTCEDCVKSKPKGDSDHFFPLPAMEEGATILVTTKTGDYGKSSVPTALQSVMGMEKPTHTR

T9 sequence (A0A2K5UD97 entry or part of it): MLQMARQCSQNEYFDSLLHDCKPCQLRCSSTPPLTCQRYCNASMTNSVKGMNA
T10 sequence (A0A2K5UD97 entry or part of it): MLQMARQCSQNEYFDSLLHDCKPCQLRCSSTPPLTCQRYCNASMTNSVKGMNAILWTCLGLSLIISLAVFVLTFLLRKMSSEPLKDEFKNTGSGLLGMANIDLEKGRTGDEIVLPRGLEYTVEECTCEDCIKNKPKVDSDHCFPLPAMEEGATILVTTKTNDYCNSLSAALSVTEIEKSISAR

B1: ADI-38484 PG antibody (antibody, human IgG1, kappa, V domains shown)
VH: QVQLVQSGAEVKKPGSSVKVSCKASGGTFSNDVISWVRQAPGQGLEWMGVIIPIFGIANYAQKFQGRVTITADESTSTAYMELSSLRSEDTAVYYCARGRGYYSSWLHDIWGQGTMVTVSS
VL: DIQMTQSPSSLSASVGDRVTITCQASQDITNYLNWYQQKPGKAPKLLIYDASNLETGVPSRFSGSGSGTDFTFTISSLQPEDIATYYCQQAFDLITFGGGTKVEIKR
notes: Expressed in HEK293 cells
- EC50 [1]: 0.428 nM
- EC50 [2]: 2.79 nM
- EC50 [3]: 1.95 nM
- EC50 [4]: ~1.55 nM
- EC50 [5]: 4.25 nM
- EC50 [6]: 0.934 nM

B2: anti-BCMA parent antibody ADI-34857 (antibody, V domains shown)
VH: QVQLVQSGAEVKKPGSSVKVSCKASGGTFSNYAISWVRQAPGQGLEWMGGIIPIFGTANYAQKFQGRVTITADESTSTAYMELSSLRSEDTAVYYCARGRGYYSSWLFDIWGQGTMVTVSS
VL: DIQMTQSPSSLSASVGDRVTITCQASQDITNYLNWYQQKPGKAPKLLIYDASNLETGVPSRFSGSGSGTDFTFTISSLQPEDIATYYCQQAFDLITFGGGTKVEIK
notes: Tested as IgG (captured by anti-human Fc probe)
- FOB, Fold Over Background [7]: 3 fold
- Kd [8]: 1.47 nM
- Kd (Human BCMA-IHM): 44 nM
- Kd (Human BCMA monomer): 35.9 nM
- FON, Fold Over Negative [9]: 10 fold
- MFI [9]: 2280
- MFI [10]: 877

B3: antibody ADI-38481 (antibody, V domains shown)
VH: QVQLVQSGAEVKKPGSSVKVSCKASGGTFSNDVISWVRQAPGQGLEWMGVIIPIFGIANYAQKFQGRVTITADESTSTAYMELSSLRSEDTAVYYCARGRGYYSSWLLDIWGQGTMVTVSS
VL: DIQMTQSPSSLSASVGDRVTITCQASQDITNYLNWYQQKPGKAPKLLIYDASNLETGVPSRFSGSGSGTDFTFTISSLQPEDIATYYCQQAFDLITFGGGTKVEIK
- FOB, Fold Over Background [7]: 10 fold
- Kd (Mouse BCMA-Fc): 2.44 nM
- Kd [8]: 0.897 nM
- Kd (Human BCMA-IHM): 0.496 nM
- Kd (Human BCMA monomer): 0.1 nM
- FON, Fold Over Negative [9]: 31 fold
- MFI [9]: 6660
- MFI [10]: 2620

B4: antibody ADI-38484 (antibody, V domains shown)
VH: QVQLVQSGAEVKKPGSSVKVSCKASGGTFSNDVISWVRQAPGQGLEWMGVIIPIFGIANYAQKFQGRVTITADESTSTAYMELSSLRSEDTAVYYCARGRGYYSSWLHDIWGQGTMVTVSS
VL: DIQMTQSPSSLSASVGDRVTITCQASQDITNYLNWYQQKPGKAPKLLIYDASNLETGVPSRFSGSGSGTDFTFTISSLQPEDIATYYCQQAFDLITFGGGTKVEIK
- FOB, Fold Over Background [7]: 11 fold
- Kd (Mouse BCMA-Fc): 0.85 nM
- Kd [8]: 1.07 nM
- Kd (Human BCMA-IHM): 0.539 nM
- Kd (Human BCMA monomer): 0.0794 nM
- FON, Fold Over Negative [9]: 35 fold
- MFI [9]: 7720
- MFI [10]: 2720

B5: anti-BCMA parent antibody ADI-34861 (antibody, V domains shown)
VH: QLQLQESGPGLVKPSETLSLTCTVSGGSISSSSYYWGWIRQPPGKGLEWIGSISYSGSTYYNPSLKSRVTISVDTSKNQFSLKLSSVTAADTAVYYCARDRGDTILDVWGQGTMVTVSS
VL: DIQMTQSPSSLSASVGDRVTITCRASQSISRYLNWYQQKPGKAPKLLIYAASSLQSGVPSRFSGSGSGTDFTLTISSLQPEDFATYYCQQKYFDITFGGGTKVEIK
notes: as for B2
- FOB, Fold Over Background [7]: 4 fold
- Kd (Mouse BCMA-Fc): 3.68 nM
- Kd [8]: 2.11 nM
- Kd (Human BCMA-IHM): 51.4 nM
- Kd (Human BCMA monomer): 17.3 nM
- FON, Fold Over Negative [9]: 6 fold
- MFI [9]: 1400
- MFI [10]: 1000

B6: ADI-38497 PG antibody (antibody, V domains shown)
VH: QLQLQESGPGLVKPSETLSLTCTVSGGSIVSSSYYWTWIRQPPGKGLEWIGSISIAGSTYYNPSLKSRVTISVDTSKNQFSLKLSSVTAADTAVYYCARDRGDQILDVWSQGTMVTVSS
VL: DIQMTQSPSSLSASVGDRVTITCRASQSISRYLNWYQQKPGKAPKLLIYAASSLQSGVPSRFSGSGSGTDFTLTISSLQPEDFATYYCQQKYFDITFGGGTKVEIKR
notes: Expressed in HEK293 cells
- Kd [11]: 1.77 nM
- koff [11]: 0.000872 s⁻¹
- kon [11]: 492000 M⁻¹ s⁻¹
- Kd [12]: 83.1 nM
- koff [12]: 0.0831 s⁻¹
- kon [12]: 1e+06 M⁻¹ s⁻¹
- Kd [13]: 0.061 nM
- koff [13]: 1.76e-05 s⁻¹
- kon [13]: 288000 M⁻¹ s⁻¹
- Kd [14]: 0.0301 nM
- koff [14]: 1.03e-05 s⁻¹
- kon [14]: 340000 M⁻¹ s⁻¹
- EC50 [15]: 1.49 nM
- EC50 [1]: 2.12 nM
- EC50 [2]: 1.79 nM
- EC50 [3]: 1.01 nM
- EC50 [4]: ~1.71 nM
- EC50 [16]: 1.69 nM
- EC50 [17]: 1.18 nM
- EC50 [5]: 2.43 nM
- EC50 [6]: 5.11 nM

B7: antibody ADI-38497 (antibody, V domains shown)
VH: QLQLQESGPGLVKPSETLSLTCTVSGGSIVSSSYYWTWIRQPPGKGLEWIGSISIAGSTYYNPSLKSRVTISVDTSKNQFSLKLSSVTAADTAVYYCARDRGDQILDVWSQGTMVTVSS
VL: DIQMTQSPSSLSASVGDRVTITCRASQSISRYLNWYQQKPGKAPKLLIYAASSLQSGVPSRFSGSGSGTDFTLTISSLQPEDFATYYCQQKYFDITFGGGTKVEIK
- FOB, Fold Over Background [7]: 8 fold
- Kd (Mouse BCMA-Fc): 0.503 nM
- Kd [8]: 0.602 nM
- Kd (Human BCMA-IHM): 1.02 nM
- Kd (Human BCMA monomer): 0.621 nM
- FON, Fold Over Negative [9]: 26 fold
- MFI [9]: 5670
- MFI [10]: 2320

B8: antibody ADI-38491 (antibody, V domains shown)
VH: QLQLQESGPGLVKPSETLSLTCTVSGGSIVSSSYYWTWIRQPPGKGLEWIGSISIAGSTYYNPSLKSRVTISVDTSKNQFSLKLSSVTAADTAVYYCARDRGDTILDVWGQGTMVTVSS
VL: DIQMTQSPSSLSASVGDRVTITCRASQSISRYLNWYQQKPGKAPKLLIYAASSLQSGVPSRFSGSGSGTDFTLTISSLQPEDFATYYCQQKYFDITFGGGTKVEIK
- FOB, Fold Over Background [7]: 4 fold
- Kd (Mouse BCMA-Fc): 3.04 nM
- Kd [8]: 1.27 nM
- Kd (Human BCMA-IHM): 2.62 nM
- Kd (Human BCMA monomer): 1.02 nM
- FON, Fold Over Negative [9]: 5 fold
- MFI [9]: 1100
- MFI [10]: 996
